Target: microtubules (X-rhodamine labeled, biotin-linked to the surface)
Assay: TIRF microscopy of GFP-tagged protein on immobilised microtubules

B1: KIF7_(560)-GFP, N-terminal motor domain and first coiled-coil of KIF7 with a C-terminal GFP tag (domain or fragment)
chain: MGLEAQRLPGAEEAPVRVALRVRPLLPKELLHGHQSCLRVEPERGRITLGRDRHFGFHVVLGEDTGQEAVYQACVQPLLEAFFEGFNATVFAYGQTGSGKTYTMGEASVASLHEDEQGIIPRAMAEAFKLIDENDLLDCLVHVSYLELYKEEFRDLLEVGTASRDIQLREDDRGNVVLCGVKEVDVEGLDEVLSLLEMGNAARHTGATHFNRLSSRSHTVFTVTLEQRGRTPSRLPRPAAGHLLVSKFHFVDLAGSERVLKTGSTGERLKESIQINSTLLALGNVISALGDPQRRGSHIPYRDSKITRILKDSLGGNAKTVMIACVSPSSSDFDETLNTLNYASRAQNIRNRATVNWHPEAERVPEEQAAGARGPPRHRSETRIIHRGRRVPCPAVGSAAVAAGLGAECARCRARTSAAYSLLRELQAEPGLPGAAARKVRDWLCAVEGERSTLSSASGPDSGIESAPAEDQAAQGTSGRKGDEGTQQLLTLQSQVARLEEENRDFLAALEDAMEQYKLQSDRLREQQEEMVELRLRLELAQPGWGAPGLLQGLPPGSFV
B1 was tested, and the fold increase in filament-bound KIF7 with 2 mM AMP-PNP against 1 mM MgATP was 2 fold.

Reference: paper PMC4085576
